Experimental data from the supplement of paper PMC10065799, “High-throughput profiling of sequence recognition by tyrosine kinases and SH2 domains using bacterial peptide display” (eLife, 2023).

Experiments:
[1] = system: AncSZ; test: phosphorylation enrichment, bacterial display (enrichment ratio); higher = better substrate or ligand; peptides without Tyr show the background
[2] = molecular target: EPHB1 (UniProt P54762); test: as above
[3] = molecular target: EPHB2 (UniProt P29323); test: as above
Chain of EPHB2 (P29323 whole entry, looked up): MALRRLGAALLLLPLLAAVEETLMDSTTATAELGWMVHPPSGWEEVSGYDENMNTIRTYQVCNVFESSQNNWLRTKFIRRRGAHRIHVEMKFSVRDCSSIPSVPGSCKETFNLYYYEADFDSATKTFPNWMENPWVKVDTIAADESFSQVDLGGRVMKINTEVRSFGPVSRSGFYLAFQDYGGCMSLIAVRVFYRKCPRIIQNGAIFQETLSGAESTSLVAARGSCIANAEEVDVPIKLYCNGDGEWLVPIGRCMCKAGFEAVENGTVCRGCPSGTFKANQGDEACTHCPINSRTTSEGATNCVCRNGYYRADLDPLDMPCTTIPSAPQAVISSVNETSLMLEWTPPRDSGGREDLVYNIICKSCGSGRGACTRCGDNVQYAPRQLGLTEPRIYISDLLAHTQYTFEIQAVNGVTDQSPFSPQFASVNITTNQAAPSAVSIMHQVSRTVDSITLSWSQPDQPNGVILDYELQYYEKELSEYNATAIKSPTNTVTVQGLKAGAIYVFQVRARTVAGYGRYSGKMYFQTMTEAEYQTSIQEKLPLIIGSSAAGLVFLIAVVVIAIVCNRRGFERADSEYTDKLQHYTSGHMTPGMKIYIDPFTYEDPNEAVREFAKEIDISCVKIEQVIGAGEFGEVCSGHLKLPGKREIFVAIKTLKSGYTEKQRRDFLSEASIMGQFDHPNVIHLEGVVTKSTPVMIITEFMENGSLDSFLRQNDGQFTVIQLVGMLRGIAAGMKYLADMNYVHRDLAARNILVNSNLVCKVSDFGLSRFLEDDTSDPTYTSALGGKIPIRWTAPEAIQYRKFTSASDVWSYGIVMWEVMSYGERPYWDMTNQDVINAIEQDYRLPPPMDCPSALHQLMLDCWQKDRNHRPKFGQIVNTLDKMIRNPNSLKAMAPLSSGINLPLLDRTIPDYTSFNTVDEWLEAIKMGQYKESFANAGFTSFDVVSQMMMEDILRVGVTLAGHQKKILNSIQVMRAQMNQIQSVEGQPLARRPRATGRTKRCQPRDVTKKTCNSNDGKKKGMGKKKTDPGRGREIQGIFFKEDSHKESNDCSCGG

[4] = molecular target: FGFR1 (UniProt P11362); test: as above
Chain of FGFR1 (P11362 whole entry, looked up): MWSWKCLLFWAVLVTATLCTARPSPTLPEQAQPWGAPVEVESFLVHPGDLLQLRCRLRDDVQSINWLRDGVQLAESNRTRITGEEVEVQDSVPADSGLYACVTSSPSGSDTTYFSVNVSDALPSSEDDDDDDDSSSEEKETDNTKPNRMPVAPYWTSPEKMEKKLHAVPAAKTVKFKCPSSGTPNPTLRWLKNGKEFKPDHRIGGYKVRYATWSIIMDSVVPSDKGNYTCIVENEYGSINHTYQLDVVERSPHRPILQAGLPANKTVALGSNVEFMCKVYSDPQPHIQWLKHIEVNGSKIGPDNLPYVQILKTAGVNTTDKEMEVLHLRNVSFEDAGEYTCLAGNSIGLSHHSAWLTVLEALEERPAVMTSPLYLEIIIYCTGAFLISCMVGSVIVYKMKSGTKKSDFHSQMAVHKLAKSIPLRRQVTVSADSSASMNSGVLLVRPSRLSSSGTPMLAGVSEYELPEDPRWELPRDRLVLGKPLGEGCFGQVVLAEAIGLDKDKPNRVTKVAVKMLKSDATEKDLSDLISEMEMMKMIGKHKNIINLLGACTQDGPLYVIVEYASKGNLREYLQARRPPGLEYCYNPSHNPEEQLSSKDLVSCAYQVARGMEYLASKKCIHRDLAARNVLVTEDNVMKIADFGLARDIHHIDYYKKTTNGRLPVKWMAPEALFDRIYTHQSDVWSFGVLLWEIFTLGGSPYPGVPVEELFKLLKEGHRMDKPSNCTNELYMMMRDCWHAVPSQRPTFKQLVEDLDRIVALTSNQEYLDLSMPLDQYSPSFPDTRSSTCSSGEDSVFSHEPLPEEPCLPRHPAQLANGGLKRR

[5] = molecular target: FGFR3 (UniProt P22607); test: as above
[6] = system: Fer (mouse); test: as above
[7] = molecular target: Fes (UniProt P07332); test: as above
[8] = molecular target: Fyn (UniProt P06241); test: as above
[9] = molecular target: Hck (UniProt P08631); test: as above
Chain of Hck (P08631 whole entry, looked up): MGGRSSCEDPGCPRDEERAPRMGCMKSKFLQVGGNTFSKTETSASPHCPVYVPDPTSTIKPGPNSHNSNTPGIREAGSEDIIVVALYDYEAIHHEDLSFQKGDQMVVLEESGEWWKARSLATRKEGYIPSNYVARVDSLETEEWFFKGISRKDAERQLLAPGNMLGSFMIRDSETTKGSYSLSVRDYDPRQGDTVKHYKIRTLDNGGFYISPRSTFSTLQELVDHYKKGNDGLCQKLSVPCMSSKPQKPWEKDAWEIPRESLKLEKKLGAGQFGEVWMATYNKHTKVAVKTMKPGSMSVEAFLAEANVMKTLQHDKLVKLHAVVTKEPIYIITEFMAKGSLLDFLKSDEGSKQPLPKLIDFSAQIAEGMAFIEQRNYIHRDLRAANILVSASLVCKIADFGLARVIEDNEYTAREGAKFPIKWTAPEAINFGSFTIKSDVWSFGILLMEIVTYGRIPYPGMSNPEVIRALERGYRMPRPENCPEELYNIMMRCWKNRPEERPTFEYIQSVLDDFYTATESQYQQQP

[10] = molecular target: Jak2 (UniProt O60674); test: as above
Chain of Jak2 (O60674 whole entry, looked up): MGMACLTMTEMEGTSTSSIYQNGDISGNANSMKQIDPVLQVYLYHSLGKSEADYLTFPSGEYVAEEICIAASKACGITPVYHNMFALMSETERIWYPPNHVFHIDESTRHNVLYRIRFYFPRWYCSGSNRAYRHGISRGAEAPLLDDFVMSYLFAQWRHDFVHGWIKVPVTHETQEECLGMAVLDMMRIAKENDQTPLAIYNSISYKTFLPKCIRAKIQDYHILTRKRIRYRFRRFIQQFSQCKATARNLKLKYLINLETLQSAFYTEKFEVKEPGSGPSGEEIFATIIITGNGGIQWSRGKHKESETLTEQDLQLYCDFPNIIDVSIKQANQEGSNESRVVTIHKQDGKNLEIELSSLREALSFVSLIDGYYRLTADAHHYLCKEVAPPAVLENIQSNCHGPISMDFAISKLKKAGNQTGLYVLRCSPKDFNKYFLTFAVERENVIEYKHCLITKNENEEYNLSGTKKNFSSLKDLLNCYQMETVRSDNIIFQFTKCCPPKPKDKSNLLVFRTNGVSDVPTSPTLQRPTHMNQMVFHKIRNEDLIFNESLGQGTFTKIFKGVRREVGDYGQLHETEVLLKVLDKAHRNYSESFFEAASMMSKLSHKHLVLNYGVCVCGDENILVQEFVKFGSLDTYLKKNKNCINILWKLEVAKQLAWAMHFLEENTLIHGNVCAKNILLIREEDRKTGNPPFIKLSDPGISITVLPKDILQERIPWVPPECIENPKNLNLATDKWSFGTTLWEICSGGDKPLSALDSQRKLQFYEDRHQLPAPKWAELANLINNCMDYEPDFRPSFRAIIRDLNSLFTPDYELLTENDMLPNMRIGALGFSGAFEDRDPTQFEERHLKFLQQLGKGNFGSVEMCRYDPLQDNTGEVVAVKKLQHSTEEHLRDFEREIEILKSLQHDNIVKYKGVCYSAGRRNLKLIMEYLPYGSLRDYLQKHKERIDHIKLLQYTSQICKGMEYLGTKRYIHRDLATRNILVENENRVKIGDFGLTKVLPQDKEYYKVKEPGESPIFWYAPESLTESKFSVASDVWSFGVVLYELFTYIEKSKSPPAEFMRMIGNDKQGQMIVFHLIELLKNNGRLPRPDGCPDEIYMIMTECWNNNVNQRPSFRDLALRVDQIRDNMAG

[11] = molecular target: MERTK (UniProt Q12866); test: as above
[12] = system: c-Abl (mouse); test: as above
[13] = system: c-Src; test: as above
[14] = molecular target: Grb2 SH2 (UniProt P62993); test: SH2 binding enrichment of the phosphorylated peptide, bacterial display (enrichment ratio); higher = better substrate or ligand; peptides without Tyr show the background
Chain of Grb2 SH2 (P62993 whole entry, looked up): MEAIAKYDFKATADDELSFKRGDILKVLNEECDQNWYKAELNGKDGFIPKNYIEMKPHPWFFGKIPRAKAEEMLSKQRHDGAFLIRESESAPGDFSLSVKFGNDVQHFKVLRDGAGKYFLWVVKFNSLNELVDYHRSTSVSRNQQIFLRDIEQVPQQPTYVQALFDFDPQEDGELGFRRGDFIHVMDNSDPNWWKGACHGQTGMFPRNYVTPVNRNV

[15] = molecular target: SHP2-C SH2; test: as above
[16] = molecular target: c-Src SH2; test: as above
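Throughout, for SH2 binding enrichment of the phosphorylated peptide, bacterial display: peptide library displayed on the E. coli surface as eCPX fusions, selected cells deep-sequenced, score is each peptide's frequency after selection divided by its frequency in the input.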
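Throughout, for phosphorylation enrichment, bacterial display: 11-residue human phosphosite peptides and single-mutation variants displayed on the E. coli surface, counted by deep sequencing, each peptide's frequency after selection divided by its frequency in the unselected input library; frequency after pTyr selection over input frequency; kinase dosed for 20-30% of maximal phosphorylation in three min.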

Chain of EPHB1 (P54762 whole entry, looked up): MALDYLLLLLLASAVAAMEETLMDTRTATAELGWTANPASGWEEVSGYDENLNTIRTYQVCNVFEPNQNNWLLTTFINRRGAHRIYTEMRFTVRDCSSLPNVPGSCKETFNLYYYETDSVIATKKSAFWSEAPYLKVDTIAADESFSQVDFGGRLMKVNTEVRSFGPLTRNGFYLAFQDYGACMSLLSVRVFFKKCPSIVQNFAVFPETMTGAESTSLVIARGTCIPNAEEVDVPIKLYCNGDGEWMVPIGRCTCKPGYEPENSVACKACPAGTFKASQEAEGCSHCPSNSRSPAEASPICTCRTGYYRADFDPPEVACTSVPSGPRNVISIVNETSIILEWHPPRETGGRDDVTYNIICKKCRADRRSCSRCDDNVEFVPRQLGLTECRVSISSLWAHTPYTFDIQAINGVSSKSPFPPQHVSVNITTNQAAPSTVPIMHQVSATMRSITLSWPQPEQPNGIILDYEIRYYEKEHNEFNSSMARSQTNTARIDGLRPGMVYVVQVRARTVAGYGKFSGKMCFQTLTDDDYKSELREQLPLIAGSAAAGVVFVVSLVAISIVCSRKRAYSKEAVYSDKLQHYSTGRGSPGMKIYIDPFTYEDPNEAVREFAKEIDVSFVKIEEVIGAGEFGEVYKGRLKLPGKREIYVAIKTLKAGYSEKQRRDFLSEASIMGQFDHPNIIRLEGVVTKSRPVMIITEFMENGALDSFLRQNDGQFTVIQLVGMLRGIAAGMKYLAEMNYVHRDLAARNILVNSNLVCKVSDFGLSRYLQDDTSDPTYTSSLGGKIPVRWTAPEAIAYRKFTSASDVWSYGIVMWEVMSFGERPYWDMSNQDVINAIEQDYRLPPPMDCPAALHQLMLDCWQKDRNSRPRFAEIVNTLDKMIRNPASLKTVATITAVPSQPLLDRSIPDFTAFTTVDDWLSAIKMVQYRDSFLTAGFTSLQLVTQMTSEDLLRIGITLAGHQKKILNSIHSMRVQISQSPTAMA

With SYTDPYAQPPL [KMT2D_Y2378] the phosphorylation enrichment [1] was 0.927, the phosphorylation enrichment [2] was 0.591 and the phosphorylation enrichment [3] was 0.482. The phosphorylation enrichment [4] was 3.08, the phosphorylation enrichment [5] was 2.16 and the phosphorylation enrichment [6] was 0.489. It also gave a phosphorylation enrichment [7] of 0.902, a phosphorylation enrichment [8] of 0.496 and a phosphorylation enrichment [9] of 0.473. For the same sequence, the phosphorylation enrichment [10] was 0.681, the phosphorylation enrichment [11] was 0.52 and the phosphorylation enrichment [12] was 0.666. It also gave a phosphorylation enrichment [13] of 0.587, an SH2 binding enrichment [14] of 0.91 and an SH2 binding enrichment [15] of 0.661. The SH2 binding enrichment [16] was 1.02.

SLFNGYVYSGV [NEIL3_Y71] gave a phosphorylation enrichment [1] of 1.04, a phosphorylation enrichment [2] of 0.555 and a phosphorylation enrichment [3] of 0.66. It also gave a phosphorylation enrichment [4] of 0.624, a phosphorylation enrichment [5] of 0.634 and a phosphorylation enrichment [6] of 0.864. The phosphorylation enrichment [7] was 0.978, the phosphorylation enrichment [8] was 5.75 and the phosphorylation enrichment [9] was 4.49. The phosphorylation enrichment [10] was 1.58, the phosphorylation enrichment [11] was 0.929 and the phosphorylation enrichment [12] was 0.695. For the same sequence, the phosphorylation enrichment [13] was 4.91, the SH2 binding enrichment [14] was 1.03 and the SH2 binding enrichment [15] was 2.5. The SH2 binding enrichment [16] was 1.91.

QMVGMYASSSM [AVPR2_Y124_Y128S] gave a phosphorylation enrichment [1] of 0.647, a phosphorylation enrichment [2] of 0.73 and a phosphorylation enrichment [3] of 0.403. For the same sequence, the phosphorylation enrichment [4] was 0.477, the phosphorylation enrichment [5] was 0.435 and the phosphorylation enrichment [6] was 0.472. It also gave a phosphorylation enrichment [7] of 0.645, a phosphorylation enrichment [8] of 0.438 and a phosphorylation enrichment [9] of 0.766. The phosphorylation enrichment [10] was 0.635, the phosphorylation enrichment [11] was 0.504 and the phosphorylation enrichment [12] was 0.807. It also gave a phosphorylation enrichment [13] of 0.567, an SH2 binding enrichment [14] of 0.869 and an SH2 binding enrichment [15] of 0.756. For the same sequence, the SH2 binding enrichment [16] was 0.685.

PFVFFYSFLLK [PTEN_Y178_R173P_YF] was tested, and the phosphorylation enrichment [1] was 1.99, the phosphorylation enrichment [2] was 1.07 and the phosphorylation enrichment [3] was 0.686. For the same sequence, the phosphorylation enrichment [4] was 0.751, the phosphorylation enrichment [5] was 1.25 and the phosphorylation enrichment [6] was 0.983. It also gave a phosphorylation enrichment [7] of 2.12, a phosphorylation enrichment [8] of 0.679 and a phosphorylation enrichment [9] of 0.983. It also gave a phosphorylation enrichment [10] of 2.1, a phosphorylation enrichment [11] of 0.931 and a phosphorylation enrichment [12] of 1.52. For the same sequence, the phosphorylation enrichment [13] was 0.577, the SH2 binding enrichment [14] was 1.04 and the SH2 binding enrichment [15] was 0.913. For the same sequence, the SH2 binding enrichment [16] was 0.496.

LKLIQYHLTQQ [AKAP4_Y554] gave a phosphorylation enrichment [1] of 0.902, a phosphorylation enrichment [2] of 0.88 and a phosphorylation enrichment [3] of 0.774. It also gave a phosphorylation enrichment [4] of 0.932, a phosphorylation enrichment [5] of 0.879 and a phosphorylation enrichment [6] of 0.711. For the same sequence, the phosphorylation enrichment [7] was 1.34, the phosphorylation enrichment [8] was 0.5 and the phosphorylation enrichment [9] was 0.534. For the same sequence, the phosphorylation enrichment [10] was 1.28, the phosphorylation enrichment [11] was 1.15 and the phosphorylation enrichment [12] was 0.646. For the same sequence, the phosphorylation enrichment [13] was 0.599, the SH2 binding enrichment [14] was 1.03 and the SH2 binding enrichment [15] was 1.31. The SH2 binding enrichment [16] was 0.762.

MEIHAYRKLLE [LMNA_Y376] was tested, and the phosphorylation enrichment [1] was 0.804, the phosphorylation enrichment [2] was 0.479 and the phosphorylation enrichment [3] was 0.67. For the same sequence, the phosphorylation enrichment [4] was 0.443, the phosphorylation enrichment [5] was 0.57 and the phosphorylation enrichment [6] was 0.527. For the same sequence, the phosphorylation enrichment [7] was 0.97, the phosphorylation enrichment [8] was 0.429 and the phosphorylation enrichment [9] was 0.414. The phosphorylation enrichment [10] was 0.814, the phosphorylation enrichment [11] was 0.383 and the phosphorylation enrichment [12] was 0.672. For the same sequence, the phosphorylation enrichment [13] was 0.397, the SH2 binding enrichment [14] was 0.869 and the SH2 binding enrichment [15] was 0.572. The SH2 binding enrichment [16] was 0.471.

Sequence PLQSEYSSITT [ITGB4_Y1760] has a phosphorylation enrichment [1] of 1.89, a phosphorylation enrichment [2] of 3.14 and a phosphorylation enrichment [3] of 2.18. The phosphorylation enrichment [4] was 1.08, the phosphorylation enrichment [5] was 1.58 and the phosphorylation enrichment [6] was 1.83. The phosphorylation enrichment [7] was 2.13, the phosphorylation enrichment [8] was 1.58 and the phosphorylation enrichment [9] was 1.92. It also gave a phosphorylation enrichment [10] of 0.814, a phosphorylation enrichment [11] of 1.77 and a phosphorylation enrichment [12] of 1.28. It also gave a phosphorylation enrichment [13] of 1.77, an SH2 binding enrichment [14] of 0.696 and an SH2 binding enrichment [15] of 0.57. The SH2 binding enrichment [16] was 0.952.

With IVRSLYEDPED [VHL_Y185_L188P] the phosphorylation enrichment [1] was 1.12, the phosphorylation enrichment [2] was 0.748 and the phosphorylation enrichment [3] was 0.698. It also gave a phosphorylation enrichment [4] of 0.502, a phosphorylation enrichment [5] of 0.707 and a phosphorylation enrichment [6] of 0.738. The phosphorylation enrichment [7] was 1.02, the phosphorylation enrichment [8] was 0.455 and the phosphorylation enrichment [9] was 0.544. The phosphorylation enrichment [10] was 0.878, the phosphorylation enrichment [11] was 0.424 and the phosphorylation enrichment [12] was 0.619. For the same sequence, the phosphorylation enrichment [13] was 0.586, the SH2 binding enrichment [14] was 0.823 and the SH2 binding enrichment [15] was 0.815. The SH2 binding enrichment [16] was 3.15.

For TLPAFYMENFS [GLB1_Y552_G554E], the phosphorylation enrichment [1] was 1.19, the phosphorylation enrichment [2] was 1.25 and the phosphorylation enrichment [3] was 0.789. It also gave a phosphorylation enrichment [4] of 0.439, a phosphorylation enrichment [5] of 0.855 and a phosphorylation enrichment [6] of 0.64. For the same sequence, the phosphorylation enrichment [7] was 1.62, the phosphorylation enrichment [8] was 0.484 and the phosphorylation enrichment [9] was 0.523. It also gave a phosphorylation enrichment [10] of 1.37, a phosphorylation enrichment [11] of 0.947 and a phosphorylation enrichment [12] of 1.2. For the same sequence, the phosphorylation enrichment [13] was 0.735, the SH2 binding enrichment [14] was 0.853 and the SH2 binding enrichment [15] was 0.638. The SH2 binding enrichment [16] was 0.484.

Sequence LRLSSYSTTIR [CYP7B1_Y365] has a phosphorylation enrichment [1] of 1.41, a phosphorylation enrichment [2] of 0.674 and a phosphorylation enrichment [3] of 0.708. The phosphorylation enrichment [4] was 0.655, the phosphorylation enrichment [5] was 0.756 and the phosphorylation enrichment [6] was 0.524. For the same sequence, the phosphorylation enrichment [7] was 1.1, the phosphorylation enrichment [8] was 0.687 and the phosphorylation enrichment [9] was 0.615. For the same sequence, the phosphorylation enrichment [10] was 0.936, the phosphorylation enrichment [11] was 0.686 and the phosphorylation enrichment [12] was 0.676. The phosphorylation enrichment [13] was 0.658, the SH2 binding enrichment [14] was 1.1 and the SH2 binding enrichment [15] was 0.823. It also gave an SH2 binding enrichment [16] of 0.796.

In the case of LQKNIYSEELR [LMNA_Y211_F206L], the phosphorylation enrichment [1] is reported as 1.32, the phosphorylation enrichment [2] is reported as 1.82 and the phosphorylation enrichment [3] is reported as 1.02. It also gave a phosphorylation enrichment [4] of 1.79, a phosphorylation enrichment [5] of 1.37 and a phosphorylation enrichment [6] of 0.61. For the same sequence, the phosphorylation enrichment [7] was 1.39, the phosphorylation enrichment [8] was 1.92 and the phosphorylation enrichment [9] was 1.49. For the same sequence, the phosphorylation enrichment [10] was 0.508, the phosphorylation enrichment [11] was 4.38 and the phosphorylation enrichment [12] was 0.445. It also gave a phosphorylation enrichment [13] of 0.722, an SH2 binding enrichment [14] of 0.709 and an SH2 binding enrichment [15] of 0.7. The SH2 binding enrichment [16] was 0.582.

For KTTSGYAGGLS [KRT8_Y419], the phosphorylation enrichment [1] was 0.404, the phosphorylation enrichment [2] was 0.332 and the phosphorylation enrichment [3] was 0.304. The phosphorylation enrichment [4] was 0.398, the phosphorylation enrichment [5] was 0.376 and the phosphorylation enrichment [6] was 0.422. The phosphorylation enrichment [7] was 0.496, the phosphorylation enrichment [8] was 0.33 and the phosphorylation enrichment [9] was 0.289. The phosphorylation enrichment [10] was 0.373, the phosphorylation enrichment [11] was 0.3 and the phosphorylation enrichment [12] was 0.456. For the same sequence, the phosphorylation enrichment [13] was 0.369, the SH2 binding enrichment [14] was 1.32 and the SH2 binding enrichment [15] was 0.617. For the same sequence, the SH2 binding enrichment [16] was 0.431.

With LIFTNYEAGKD [GSTP1_Y112_YF] the phosphorylation enrichment [1] was 1.21, the phosphorylation enrichment [2] was 0.703 and the phosphorylation enrichment [3] was 0.571. The phosphorylation enrichment [4] was 0.824, the phosphorylation enrichment [5] was 0.646 and the phosphorylation enrichment [6] was 0.453. The phosphorylation enrichment [7] was 1.39, the phosphorylation enrichment [8] was 0.414 and the phosphorylation enrichment [9] was 0.582. The phosphorylation enrichment [10] was 1.26, the phosphorylation enrichment [11] was 0.675 and the phosphorylation enrichment [12] was 1.24. It also gave a phosphorylation enrichment [13] of 0.998, an SH2 binding enrichment [14] of 0.848 and an SH2 binding enrichment [15] of 0.55. The SH2 binding enrichment [16] was 0.499.

Sequence AVLQLYIFVAT [CFTR_Y1014_P1013L] has a phosphorylation enrichment [1] of 1.3, a phosphorylation enrichment [2] of 0.766 and a phosphorylation enrichment [3] of 0.599. It also gave a phosphorylation enrichment [4] of 0.462, a phosphorylation enrichment [5] of 1.09 and a phosphorylation enrichment [6] of 0.573. It also gave a phosphorylation enrichment [7] of 1.37, a phosphorylation enrichment [8] of 0.516 and a phosphorylation enrichment [9] of 0.562. For the same sequence, the phosphorylation enrichment [10] was 1.24, the phosphorylation enrichment [11] was 0.498 and the phosphorylation enrichment [12] was 0.837. For the same sequence, the phosphorylation enrichment [13] was 0.567, the SH2 binding enrichment [14] was 1 and the SH2 binding enrichment [15] was 0.701. The SH2 binding enrichment [16] was 0.439.

LSVISYDLGMF [GBA3_Y174_M172I] gave a phosphorylation enrichment [1] of 1.2, a phosphorylation enrichment [2] of 0.742 and a phosphorylation enrichment [3] of 0.72. For the same sequence, the phosphorylation enrichment [4] was 0.328, the phosphorylation enrichment [5] was 0.581 and the phosphorylation enrichment [6] was 0.415. For the same sequence, the phosphorylation enrichment [7] was 1.27, the phosphorylation enrichment [8] was 0.436 and the phosphorylation enrichment [9] was 0.481. It also gave a phosphorylation enrichment [10] of 1.21, a phosphorylation enrichment [11] of 0.424 and a phosphorylation enrichment [12] of 0.961. It also gave a phosphorylation enrichment [13] of 0.586, an SH2 binding enrichment [14] of 1.12 and an SH2 binding enrichment [15] of 1.12. For the same sequence, the SH2 binding enrichment [16] was 0.888.

EEALYYLTRVE [SET_Y119_H118Y] was tested, and the phosphorylation enrichment [1] was 2.55, the phosphorylation enrichment [2] was 1.85 and the phosphorylation enrichment [3] was 1.91. The phosphorylation enrichment [4] was 9.54, the phosphorylation enrichment [5] was 9.52 and the phosphorylation enrichment [6] was 5.28. The phosphorylation enrichment [7] was 1.43, the phosphorylation enrichment [8] was 4.26 and the phosphorylation enrichment [9] was 4.07. The phosphorylation enrichment [10] was 2.69, the phosphorylation enrichment [11] was 6.68 and the phosphorylation enrichment [12] was 1.53. It also gave a phosphorylation enrichment [13] of 4.59, an SH2 binding enrichment [14] of 0.947 and an SH2 binding enrichment [15] of 1.39. It also gave an SH2 binding enrichment [16] of 0.669.
